± gives the standard deviation.
Test: protein stability index of a GFP-peptide fusion (GPS, HEK-293T) (PSI 1-6); higher = more stable
[1] = treatment: DMSO, c terminus: a fixed tail appended
[2] = treatment: MLN4924 1 uM, 8 h, c terminus: a fixed tail appended
[3] = treatment: DMSO, c terminus: native
[4] = treatment: MLN4924 1 uM, 8 h, c terminus: native
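Also: 24-mer peptide tiles fused after GFP, lentivirally expressed, FACS-sorted into six equal bins by GFP/DsRed ratio, decoded by Illumina sequencing, PSI is the read-weighted mean bin number.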

Row | Sequence | protein stability index [1] | protein stability index [2] | protein stability index [3] | protein stability index [4]
1 | ESSDDDSEEAPSTSGMGFHAPKIG [SDE2] | 5.51 ± 0.23 | 5.41 ± 0.19 |  | 
2 | TTSPNVLWPTPGHLSPLVVHRQLS [ESR2] | 2.85 ± 0.29 | 2.72 ± 0.41 |  | 
3 | DENYNLLPHGVNFQDAIFPDTQEN [CCDC3] | 4.92 ± 0.29 | 5.06 ± 0.21 |  | 
4 | SIGRRRTELRRSGSSRSPGSKARA [PLEKHN1] | 4.88 ± 0.47 | 4.95 ± 0.27 |  | 
5 | RGDPLGGCQVSPEGYAHLTHLLMG [HDAC6] | 2.35 ± 0.31 | 2.71 ± 0.47 |  | 
6 | LDPRYKRLPFLSAFERQQVENRVV [ZBED1] | 3.36 ± 0.091 | 3.47 ± 0.13 |  | 
7 | RVYHGWLFEGLGRDKAEELLQLPD [SLA] | 3.01 ± 0.53 | 2.82 ± 0.57 |  | 
8 | ETTESQQNGEEGTSTPEDKESGQE [SMARCE1] | 5.61 ± 0.18 | 5.23 ± 0.17 |  | 
9 | GVEEIKGHPFFEGVDWEHIRERPA [STK38L] | 3.97 ± 0.8 | 4.32 ± 0.37 |  | 
10 | LFYSAEVEMLCDQAWGSMLEVPAG [CCDC3] | 1.92 ± 0.53 | 2.26 ± 0.41 |  | 
11 | AFRALASAQCPQFGIPRKRLKQS [SPOPL] |  |  | 2.74 ± 0.19 | 2.83 ± 0.16
12 | TYEPFCKVPVITSSKEEQKLIATS [KCTD10] | 4.27 ± 0.2 | 4.16 ± 0.37 |  | 
13 | GSTLIFYKYCDHENAAFKDVALVL [TOR1AIP2] | 2.43 ± 0.59 | 2.58 ± 0.73 |  | 
14 | NVEMDATPGIDLTRVLAEMREQYE [KRT13] | 4.47 ± 0.17 | 4.75 ± 0.32 |  | 
15 | PIAPEVEDPEENPYGPPPDAVQTS [RBBP5] | 5.56 ± 0.17 | 5.54 ± 0.19 |  | 
16 | GRLGRWLRSTRFSGSLDRLRETRV [PCDHGC5] | 3.34 ± 0.18 | 3.3 ± 0.36 |  | 
17 | DIFPELDDILYHVKGMQRIVNQWS [DLC1] | 2.42 ± 0.13 | 2.49 ± 0.12 |  | 
18 | IFTKKLPHPDLPAEEKEQLLHNDE [USP39] | 5 ± 0.16 | 5.03 ± 0.1 |  | 
19 | LQSCGDLHTFTPAGRPRAERRPRR [FAM189A2] | 4.95 ± 0.27 | 5.07 ± 0.23 |  | 
20 | NKPAVKLLYNRSNNKYSYTSNSDD [KCTD10] | 4.1 ± 0.1 | 4.03 ± 0.31 |  | 
21 | AGEDNDELIDNLKEAQYIRTELVE [PCMTD2] | 5.13 ± 0.18 | 5.02 ± 0.17 |  | 
22 | IFAWNKWIDIKQFVWYTPPTFMIA [STEAP1] | 2.97 ± 1.2 | 2.95 ± 0.64 |  | 

Row | Sequence | protein stability index [1] | protein stability index [2] | protein stability index [3] | protein stability index [4]
23 | TAAMRCMCPLYDPNRQLWIELAPL [GAN] | 2.22 ± 0.51 | 2.16 ± 0.55 |  | 
24 | FKLKPLSNKTATDDTGGKDPRNV [PLD5] |  |  | 4.78 ± 0.17 | 4.89 ± 0.19
25 | RNALENIRKEMKLLEQAGSLKGSL [CRYL1] | 3.32 ± 0.64 | 3.62 ± 0.32 |  | 
26 | LCLDLAPSETGNTFVSGGCDKKAM [GNB5] | 3.96 ± 0.15 | 4.02 ± 0.17 |  | 
27 | WHLKQSPASPERDYSPYYKTIEEL [KRT13] | 3.26 ± 0.094 | 3.29 ± 0.26 |  | 
28 | RLNIKKDDEFFHFVLLCFAIGALL [TMEM40] | 2.73 ± 0.8 | 2.19 ± 0.54 |  | 
29 | GGDHRYVNNYTNSFGGEWSAPDTM [TRIM29] | 3.51 ± 0.44 | 3.51 ± 0.32 |  | 
30 | QRVGFGDDFDEDELMAELEELEQE [CHMP4C] | 5.33 ± 0.4 | 5.35 ± 0.23 |  | 
31 | LRRQKSLRLEWETQQELRKIREKE [IQUB] | 3.94 ± 0.28 | 4.02 ± 0.091 |  | 
32 | GMGLTGTMGMGMPNIAMTSGTVQP [CLINT1] | 3.84 ± 0.17 | 3.69 ± 0.13 |  | 
33 | IFGASSVDFSLSGRLLFAGYNDYT [GNB5] | 2.6 ± 0.63 | 2.12 ± 0.49 |  | 
34 | LLMTADILAETGIRKTVKRLRKHQ [ELOA2] | 2.41 ± 0.31 | 2.84 ± 0.25 |  | 
35 | ATQQARKRNFISSKSKQPAGHRRP [C22orf31] | 4.58 ± 0.27 | 4.71 ± 0.31 |  | 
36 | LYVVGGQSNYDTKGKTAVDTVFRF [KLHL13] | 2.5 ± 0.2 | 1.98 ± 0.31 |  | 
37 | VCKGLPQHEEICLGLFTLILTEPA [INTS3] | 2.53 ± 0.47 | 2.5 ± 0.48 |  | 
38 | INPFTPDSLLLHSSGQCRRRKRTY [WEE1] | 3.62 ± 0.4 | 3.83 ± 0.41 |  | 
39 | RFYRSPEVLLGTPYDLAIDMWSLG [DYRK1B] | 1.78 ± 0.42 | 2.29 ± 0.35 |  | 
40 | FEGMAFLETEQGKPFVSVFRHLRL [GMCL1] | 2.66 ± 0.58 | 2.25 ± 0.31 |  | 
41 | ITVTQSHLVIQNLFEGMIWFLVPI [CDS1] | 3.25 ± 0.45 | 3.24 ± 0.34 |  | 
42 | RNMLGLLGNVAEVKELRPQLMTSQ [ZER1] | 3.09 ± 0.3 | 3.49 ± 0.69 |  | 
43 | SLALVQNGDVSAPSAILRTPESTK [ANKRD40] | 4.07 ± 0.36 | 4.06 ± 0.17 |  | 
44 | VAHVKHLSASQKALKEKEKASWSS [COX4I1] | 3.57 ± 0.4 | 3.83 ± 0.34 |  | 

Row | Sequence | protein stability index [1] | protein stability index [2] | protein stability index [3] | protein stability index [4]
45 | GGAGKEGVRVNNRFELINIDDLED [TCF25] | 4.82 ± 0.49 | 4.91 ± 0.28 |  | 
46 | LSSSEGLEPGSADPLANGCQGVSE [PSD2] | 5.39 ± 0.24 | 5.49 ± 0.12 |  | 
47 | MGNILTCCINSHCGWPRGKDAPCY [DRICH1] | 2.44 ± 0.39 | 2.08 ± 0.15 |  | 
48 | RQKKLMHKLQEEKAFREEMKIFRE [CCDC70] | 3.37 ± 0.28 | 3.59 ± 0.35 |  | 
49 | LTYINEDRISTTFRLTTLLMSGCS [PLK2] | 2.74 ± 0.63 | 2.56 ± 0.45 |  | 
50 | GDLQDTKENREEARFQDKQYSSHH [CHGB] | 5.18 ± 0.21 | 5.02 ± 0.35 |  | 
51 | PVQELPPSLRAPPPGGWPLQPRVQ [ZMAT5] | 4.02 ± 0.39 | 4.18 ± 0.25 |  | 
52 | IDNARLAADDFRLKYENELALRQG [KRT15] | 4.24 ± 0.28 | 4.28 ± 0.45 |  | 
53 | KQPPLSTVPADGYILELDDGNGGQ [TRIM9] | 5.07 ± 0.12 | 5.07 ± 0.2 |  | 
54 | RNEGVSSVLLGASNADQLMENIGA [KCNAB2] | 4.25 ± 0.09 | 4.42 ± 0.12 |  | 
55 | RRRFREKKKAIQEEEERDQALQAK [YJU2B] | 5.26 ± 0.36 | 5.33 ± 0.23 |  | 
56 | ILPKELQGWVREHCPESGEEAVIL [ZSCAN9] | 2.74 ± 0.35 | 2.95 ± 0.47 |  | 
57 | HLIRHQITHTREEQPHGRSRRREQ [ZNF8] | 4.57 ± 0.13 | 4.75 ± 0.051 |  | 
58 | PEVILELGWAQPCDVWSIGCILFE [CLK3] | 2.63 ± 0.5 | 3.55 ± 1 |  | 
59 | LVARFLEQSSCTMTPDIHELVENI [FAM189A2] | 2.54 ± 0.55 | 2.37 ± 0.4 |  | 
60 | YLLHPAAFHGAPSHLPTRSPSFPE [TBX6] | 2.49 ± 0.28 | 2.87 ± 0.26 |  | 
61 | LLPMLDALRFTADVRSVLSRNLHQ [CTDNEP1] | 2.5 ± 0.37 | 2.1 ± 0.21 |  | 
62 | AAIVVNGHGMTPLKVAAESCKADV [FEM1B] | 3.38 ± 0.39 | 3.3 ± 0.35 |  | 
63 | PCVIESLRTLDKKTFYKTADISQM [TAF7L] | 2.33 ± 0.34 | 2.41 ± 0.23 |  | 
64 | LQNEVRQLTEKLARVNENLARKIA [SSNA1] | 2.27 ± 0.29 | 2.2 ± 0.29 |  | 
65 | EGLYEQAFQLLRRFVQAEGRRATL [TRADD] | 2.28 ± 0.13 | 2.23 ± 0.54 |  | 
